# Assay results published in patent US20180258175A1 (ABLEXIS, published 2018).
# Read-outs that look alike come from different tables or passages of the source.
# B1: CCK-415A (antibody, V domains shown)
# VH: QVQLQESGPGLVKPSETLSLTCTVSGGSISSSYWTWIRQPPGKGLEWIGYIHYSGSTNYNPSLKSRVTISVDTSKNQFSLKLSSVTAADTAVYYCARGFDYWGQGTLVTVSS
# VL: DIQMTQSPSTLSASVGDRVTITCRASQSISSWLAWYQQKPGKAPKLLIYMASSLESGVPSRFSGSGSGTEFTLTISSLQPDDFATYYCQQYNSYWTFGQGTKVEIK
# notes: AlivaMab chimeric IgG, human kappa LC
# B2: CCK-416A (antibody, V domains shown)
# VH: EVQLVESGGDLVQPGGSLRLSCADSRFTFSSYSMNWVRQAPGKGLEWVSYISPSSSTIYYADSVRGRFTISRDNAKNSLYLQMNSLRNEDTAVYYCARDFPHDYGYYPHYFDYWGQGTLVTVSS
# VL: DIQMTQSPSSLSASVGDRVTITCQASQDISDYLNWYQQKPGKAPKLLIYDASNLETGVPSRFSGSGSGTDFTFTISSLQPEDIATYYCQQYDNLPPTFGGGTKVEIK
# notes: as for B1
# B3: CCK-423A (antibody, V domains shown)
# VH: QVQLEQSGAEVKRPGASVKVSCKASGYTFTGYYMHWVRQAPGQGLEWMGWINPNRGDTNYAQKFQGRVTMTRDTSISTAYMELSRLRSDDTAVYYCARDLEGGGPFDYWGQGTLVTVSS
# VL: DIVMTQTPLSLPVTPGEPASISCRSSQSLLDSDDGNTYLDWYLQKPGQSPQLLIYTLSYRASGVPDRFSGSGSGTDFTLKISRVEAEDVGVYYCMQRIEFPSTFGQGTRLEIK
# notes: AlivaMab chimeric IgG, human kappa LC; also called AlivaMab CCK423A; AlivaMab Mouse CCK423A
# How the values were obtained:
# [1] = molecular target: T1, human CD115 extracellular domain (Sino Biological 10161-H08H) (human, UniProt P07333 20-517); experiment: competition ELISA, competitor TMR 44B;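 note: binding of antibodies from single-clone hybridoma supernatants to huCD115 measured with the competitor antibody present, a drop in signal meaning both share an epitope bin; low signal means same epitope bin as the mouse competitor antibody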
# T1 construct: extracellular domain; bought recombinant protein; also called huCD115; hu-CD115
# [2] = molecular target: T1, human CD115 extracellular domain (Sino …); experiment: competition ELISA, competitor TMR 100A;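 note: clonal anti-huCD115 hybridoma supernatants tested for binding with the competitor antibody present, clones failing to bind are assigned to the competitor's epitope bin; low signal means same epitope bin as the mouse competitor antibody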
# [3] = molecular target: T1, human CD115 extracellular domain (Sino …); experiment: competition ELISA, competitor TMR 35A;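 note: clonal hybridoma supernatant antibodies added to wells after the competitor mouse antibody, lost binding signal puts an antibody in that competitor's epitope bin; low signal means same epitope bin as the mouse competitor antibody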
# [4] = molecular target: T1, human CD115 extracellular domain (Sino …); experiment: competition ELISA, competitor TMR 95A;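 note: clonal anti-huCD115 hybridoma supernatants tested for binding while a competitor mouse antibody is present, where failure to bind assigns them to that competitor's epitope bin; low signal means same epitope bin as the mouse competitor antibody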
# [5] = molecular target: T1, human CD115 extracellular domain (Sino …); experiment: ELISA, blocking of biotin-CSF-1 binding to coated hu-CD115
# [6] = molecular target: T1, human CD115 extracellular domain (Sino …); experiment: competition ELISA, competitor TMR 24A
# [7] = molecular target: T1, human CD115 extracellular domain (Sino …); experiment: competition ELISA, competitor TMR 20A
# [8] = molecular target: T2, native CD115 on OCI-AML5 cells (UniProt P07333 20-972, limits assumed); experiment: cell-based or functional assay
# [9] = molecular target: T2, native CD115 on OCI-AML5 cells; experiment: cell-based or functional assay; remark: listed apart in the source
# [10] = molecular target: T1, human CD115 extracellular domain (Sino …); experiment: SPR ProteOn, mAb amine coupled, Hu CD115 analyte
# [11] = molecular target: T1, human CD115 extracellular domain (Sino …); experiment: ELISA, blocking of biotin-CSF-1 binding to coated hu-CD115; remark: listed apart in the source
Binder,signal vs NO COMP=100 [1] [%],signal vs NO COMP=100 [2] [%],signal vs NO COMP=100 [3] [%],signal vs NO COMP=100 [4] [%],IC50 [5] [pM],signal vs NO COMP=100 [6] [%],signal vs NO COMP=100 [7] [%],"IC50, inhibition of CSF-1 induced phosphorylation of CD115 [8] [pM]","IC50, inhibition of CSF-1 induced P-Tyr on CD115 [9] [pM]",Kd [10] [pM],koff [10] [s⁻¹],kon [10] [M⁻¹ s⁻¹],IC50 [11] [pM]
B1,46,93,96,11,355,31,97,570,,,,,
B2,53,104,107,21,811,37,94,1350,,,,,
B3,,,,,135,,,45,58,1200,0.015,1.3e+07,191
